“And” between values parts separate entries of the source, which are not always exact repeats. Equal values may be shown once. Read-outs that look alike come from different tables or passages of the source.
What was measured:
Assay in all cases: cell-based or functional assay
[1] = target: H6-N′-cys-tTF219 dimer (human) (UniProt P13726)
[2] = target: H6-tTF221-cys-C′ dimer (human) (UniProt P13726)
[3] = target: H6-tTF221-cys-C′ (human) (UniProt P13726)
[4] = target: tTF219, truncated Tissue Factor (extracellular domain of mature Tissue Factor, amino acids 1-219) (human) (UniProt P13726)
Chain of tTF219, truncated Tissue Factor (extracellular domain of mature Tissue Factor, amino acids 1-219) (human) (P13726 other isoform, or with tags, fused parts or gaps): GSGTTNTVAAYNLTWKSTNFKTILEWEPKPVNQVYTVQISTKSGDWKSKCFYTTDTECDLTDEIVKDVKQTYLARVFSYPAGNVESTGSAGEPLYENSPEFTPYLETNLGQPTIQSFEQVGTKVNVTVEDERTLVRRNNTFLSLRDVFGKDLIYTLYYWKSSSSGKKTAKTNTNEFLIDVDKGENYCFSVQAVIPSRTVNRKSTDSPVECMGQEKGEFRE

[5] = target: H6-N′-cys-tTF219 (human) (UniProt P13726)
Chain of H6-N′-cys-tTF219 (human) (P13726 other isoform, or with tags, fused parts or gaps): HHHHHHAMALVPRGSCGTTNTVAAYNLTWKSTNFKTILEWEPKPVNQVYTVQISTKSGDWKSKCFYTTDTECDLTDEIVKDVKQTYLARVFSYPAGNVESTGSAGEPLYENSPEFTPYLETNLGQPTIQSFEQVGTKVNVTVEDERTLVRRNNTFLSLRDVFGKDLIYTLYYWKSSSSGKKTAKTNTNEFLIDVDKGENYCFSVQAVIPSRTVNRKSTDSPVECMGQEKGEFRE

[6] = target: IgG-H6-N′-cys-tTF219 (human) (UniProt P13726)
[7] = target: tTF219, truncated Tissue Factor (extracellular domain of mature Tissue Factor, amino acids 1-219) (human) (UniProt P13726); remark: listed apart in the source
[8] = target: tTF219, truncated Tissue Factor (extracellular domain of mature Tissue Factor, amino acids 1-219) (human) (UniProt P13726); remark: listed apart in the source
[9] = target: H6-tTF220-cys-C′ (human) (UniProt P13726)
Chain of H6-tTF220-cys-C′ (human) (P13726 other isoform, or with tags, fused parts or gaps limits assumed): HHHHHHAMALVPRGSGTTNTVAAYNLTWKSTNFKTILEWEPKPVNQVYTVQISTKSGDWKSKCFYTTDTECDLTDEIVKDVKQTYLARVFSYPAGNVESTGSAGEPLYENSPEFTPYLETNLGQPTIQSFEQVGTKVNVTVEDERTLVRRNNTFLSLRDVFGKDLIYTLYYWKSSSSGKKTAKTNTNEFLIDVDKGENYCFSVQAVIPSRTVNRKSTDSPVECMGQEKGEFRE

[10] = target: H6-N′-cys-tTF219 (human) (UniProt P13726); remark: listed apart in the source
[11] = target: IgG-H6-N′-cys-tTF219 (human) (UniProt P13726); remark: listed apart in the source
[12] = target: H6-tTF221-cys-C′ (human) (UniProt P13726); remark: listed apart in the source
[13] = target: tTF220-cys-C′ (human) (UniProt P13726)
Chain of tTF220-cys-C′ (human) (P13726 other isoform, or with tags, fused parts or gaps): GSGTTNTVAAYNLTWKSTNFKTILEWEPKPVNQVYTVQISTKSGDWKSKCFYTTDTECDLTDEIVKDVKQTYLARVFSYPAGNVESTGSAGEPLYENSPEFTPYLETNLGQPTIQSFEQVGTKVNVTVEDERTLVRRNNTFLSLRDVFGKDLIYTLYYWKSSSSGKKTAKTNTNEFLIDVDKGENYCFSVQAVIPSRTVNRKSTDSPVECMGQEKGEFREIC

[14] = target: tTF219, truncated Tissue Factor (extracellular domain of mature Tissue Factor, amino acids 1-219) (human) (UniProt P13726); remark: listed apart in the source
[15] = target: H6-tTF219-cys-C′ (human) (UniProt P13726)
Chain of H6-tTF219-cys-C′ (human) (P13726 other isoform, or with tags, fused parts or gaps): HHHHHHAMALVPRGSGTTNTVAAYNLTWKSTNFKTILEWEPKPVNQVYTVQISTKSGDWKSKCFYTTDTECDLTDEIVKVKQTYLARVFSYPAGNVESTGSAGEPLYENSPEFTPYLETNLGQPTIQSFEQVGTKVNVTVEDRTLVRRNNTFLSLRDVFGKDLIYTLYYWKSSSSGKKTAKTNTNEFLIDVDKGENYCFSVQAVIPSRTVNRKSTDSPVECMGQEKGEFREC

[16] = target: tTF221-cys-C′ (human) (UniProt P13726)
Chain of tTF221-cys-C′ (human) (P13726 other isoform, or with tags, fused parts or gaps): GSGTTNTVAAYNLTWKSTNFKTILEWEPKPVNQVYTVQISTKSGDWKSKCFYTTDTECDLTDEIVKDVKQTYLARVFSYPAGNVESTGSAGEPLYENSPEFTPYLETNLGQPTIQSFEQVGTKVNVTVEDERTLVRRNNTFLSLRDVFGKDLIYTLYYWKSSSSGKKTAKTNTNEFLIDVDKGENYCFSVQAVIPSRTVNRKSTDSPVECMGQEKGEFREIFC

B21-2/10H10 bispecific antibody (Fab′ arm of the B21-2 antibody, specific for I-A^d, linked to the Fab′ arm of the 10H10 antibody, specific for tTF)
tTF concentration giving coagulation in 50 seconds [1]: 100 pM and 200 pM
fold less active than H6-tTF221-cys-C′ monomer or tTF219 at inducing coagulation [2]: 4 fold
tTF concentration giving coagulation in 50 seconds [2]: 4 nM
tTF concentration giving coagulation in 50 seconds [3]: 1 nM
tTF concentration giving coagulation in 50 seconds [4]: 100 pM and 200 pM
tTF concentration giving coagulation in 50 seconds [5]: 1 nM
fold reduction of coagulation inducing activity relative to unconjugated H6-N′-cys-tTF219 or tTF219 [6]: 5 fold
tTF concentration giving coagulation in 50 seconds [6]: 5 nM
tTF concentration giving coagulation in 50 seconds [7]: 1 nM
tTF concentration giving coagulation in 50 seconds [8]: 3 nM
tTF concentration giving coagulation in 50 seconds [9]: 500 pM
tTF concentration giving coagulation in 50 seconds [10]: 3 nM
fold less active than H6-N′-cys-tTF219 at inducing Xa formation [11]: 2 fold
tTF concentration giving coagulation in 50 seconds [12]: 500 pM
tTF concentration giving coagulation in 50 seconds [13]: 500 pM
clotting time [14]: 60 s
clotting time (time for the first fibrin strands to form), mouse plasma on A20 cells [14]: 36 s
tTF concentration giving coagulation in 50 seconds [14]: 500 pM
tTF concentration giving coagulation in 50 seconds [15]: 3 nM
tTF concentration giving coagulation in 50 seconds [16]: 500 pM

From US20030232753A1
